Biological target: H2A.Z variant containing recombinant nucleosomes (UniProt P0C0S5)
Test: pull-down; nucleosomes (2.5 μg) pre-bound to Dynabeads M-280 streptavidin; CFDP1 protein (10 μm) added; 4 h at 4°C; 20 mM Hepes pH 8.0, 150 mM NaCl, 0.2 mM EDTA, 20% glycerol, 0.1% NP40, 1 mM DTT; wash with 200 mM NaCl; immunoblot, normalized to H4

fold binding over H2A canonical nucleosomes (normalized to H4 levels): 3.3 fold
Substance: HIS tagged full-length CFDP1 protein (mouse craniofacial development protein 1) (from UniProt O88271 1-295) (natural protein)
